Measured values reported in the supplement of paper PMC10567573.

B1: APBB1IP (parent)
chain: SQVSMWDQRWQDHQPLLPITDVP
B2: FBF1 (parent)
chain: FGDSPKAEKRQIGDQEGPRPARST

Variants of: B1
Assay: protein stability index of a GFP-peptide fusion (GPS, HEK-293T) (PSI 1-6); higher = more stable
Settings: c terminus: native
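Further: lentivirally expressed fusions sorted by FACS into six bins by GFP to DsRed ratio, PSI derived from sequencing read proportions per bin multiplied by bin number.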

Row | Variant | protein stability index
1 | SQVSMWDQRWQDHQPLPPITDVP [L17P] | 2.84
2 | SQVSMWDQRWQDHQPLSPITDVP [L17S] | 2.34
3 | SQVSMWDQRWQDHQPLEPITDVP [L17E] | 3.68
4 | SQVSMWDQRWQDHQPLDPITDVP [L17D] | 3.79
5 | SQVSMWDQRWQDHQPLTPITDVP [L17T] | 2.58
6 | SQVSMWDQRWQDHQPLKPITDVP [L17K] | 3.67
7 | SQVSMWDQRWQDHQPLFPITDVP [L17F] | 2.06
8 | SQVSMWDQRWQDHQPLYPITDVP [L17Y] | 2.19
9 | SQVSMWDQRWQDHQPLLPITDVL [P23L] | 2.06
10 | SQVSMWDQRWQDHQPLLPITDVE [P23E] | 2.9
11 | SQVSMWDQRWQDHQPLLPITDVH [P23H] | 2.58
12 | SQVSMWDQRWQDHQPLLPITDVI [P23I] | 2.48
13 | SQVSMWDQIWQDHQPLLPITDVP [R9I] | 2.34
14 | SQVSMWDQNWQDHQPLLPITDVP [R9N] | 2.73
15 | SQVSMWDQLWQDHQPLLPITDVP [R9L] | 2.61
16 | SQVSMWDQWWQDHQPLLPITDVP [R9W] | 1.93
17 | SQDSMWDQRWQDHQPLLPITDVP [V3D] | 2.81
18 | SQHSMWDQRWQDHQPLLPITDVP [V3H] | 3.28
19 | SQTSMWDQRWQDHQPLLPITDVP [V3T] | 2.34
20 | SQWSMWDQRWQDHQPLLPITDVP [V3W] | 1.64
21 | SQKSMWDQRWQDHQPLLPITDVP [V3K] | 2.34
22 | SQFSMWDQRWQDHQPLLPITDVP [V3F] | 1.86
23 | SQISMWDQRWQDHQPLLPITDVP [V3I] | 2.23
24 | SQSSMWDQRWQDHQPLLPITDVP [V3S] | 2.84

Row | Variant | protein stability index
25 | SQVSMLDQRWQDHQPLLPITDVP [W6L] | 3.09
26 | SQVSMDDQRWQDHQPLLPITDVP [W6D] | 4.13
27 | SQVSMADQRWQDHQPLLPITDVP [W6A] | 3.27
28 | SQVSMNDQRWQDHQPLLPITDVP [W6N] | 3.52
29 | SQVSMKDQRWQDHQPLLPITDVP [W6K] | 3.24
30 | SQVSMEDQRWQDHQPLLPITDVP [W6E] | 4.03
31 | SQVSMPDQRWQDHQPLLPITDVP [W6P] | 3.18
32 | SQVSMWAQRWQDHQPLLPITDVP [D7A] | 3.25
33 | SQVSMWTQRWQDHQPLLPITDVP [D7T] | 2.27
34 | SQVSMWNQRWQDHQPLLPITDVP [D7N] | 2.44
35 | SQVSMWWQRWQDHQPLLPITDVP [D7W] | 1.49
36 | SQVVMWDQRWQDHQPLLPITDVP [S4V] | 2.49
37 | SQVYMWDQRWQDHQPLLPITDVP [S4Y] | 2.42
38 | SQVDMWDQRWQDHQPLLPITDVP [S4D] | 2.58
39 | SQVWMWDQRWQDHQPLLPITDVP [S4W] | 2.01
40 | SQVLMWDQRWQDHQPLLPITDVP [S4L] | 2.02
41 | SQVPMWDQRWQDHQPLLPITDVP [S4P] | 2.73
42 | SQVHMWDQRWQDHQPLLPITDVP [S4H] | 1.74
43 | SQVIMWDQRWQDHQPLLPITDVP [S4I] | 2.42
44 | SQVSMWDQRWQDHQPLLPLTDVP [I19L] | 2.03
45 | SQVSMWDQRWQDHQPLLPCTDVP [I19C] | 2.15
46 | SQVSMWDQRWQDHQPLLPMTDVP [I19M] | 2.62
47 | SQVSMWDQRWQDHQPLLPQTDVP [I19Q] | 2.87
48 | SQVSMWDQRWQDHQPLLPRTDVP [I19R] | 3.17

Row | Variant | protein stability index
49 | SQVSMWDQRIQDHQPLLPITDVP [W10I] | 2.81
50 | SQVSMWDQRFQDHQPLLPITDVP [W10F] | 2.31
51 | SQVSMWDQRRQDHQPLLPITDVP [W10R] | 3.03
52 | SQVSMWDQRYQDHQPLLPITDVP [W10Y] | 2.55
53 | SQVSMWDQRSQDHQPLLPITDVP [W10S] | 3.37
54 | SQVSMWDQRMQDHQPLLPITDVP [W10M] | 2.4
55 | SQVSMWDQRWQDHQPLLPITQVP [D21Q] | 1.53
56 | SQVSMWDQRWQDHQPLLPITEVP [D21E] | 1.77
57 | SQVSMWDQRWQDHQPLLPITCVP [D21C] | 5.18
58 | SQVSMWDQRWQDHQPLLPITGVP [D21G] | 1.94
59 | SQVSMWDQRWQDHQPLLPITTVP [D21T] | 2.88
60 | SQVSMWDQRWQDHQPLLPITFVP [D21F] | 1.44
61 | SQVSMWDQRWQDHQPLLPITMVP [D21M] | 1.62
62 | SQVSMWDQRWQDHQPLLPITKVP [D21K] | 2.44
63 | SQVSMWDQRWQDHQPLLKITDVP [P18K] | 2.1
64 | SQVSMWDQRWQDHQPLLQITDVP [P18Q] | 1.71
65 | SQVSMWDQRWQDHQPLLLITDVP [P18L] | 1.41
66 | SQVSMWDQRWQDHQPLLEITDVP [P18E] | 2.55
67 | SQVSMWDQRWQDHQPLLRITDVP [P18R] | 2.29
68 | SQVSMWDQRWQDHQPLLSITDVP [P18S] | 2.12
69 | SQVSMWDQRWQDHQPLLDITDVP [P18D] | 3.42
70 | SQVSMWDQRWQDHQPLLAITDVP [P18A] | 2.91

Variants of: B2
Assay: as above
Settings: c terminus: a fixed tail appended

Row | Variant | protein stability index
71 | CGDSPKAEKRQIGDQEGPRPARST [F1C] | 4.95
72 | DGDSPKAEKRQIGDQEGPRPARST [F1D] | 5.81
73 | TGDSPKAEKRQIGDQEGPRPARST [F1T] | 5.76
74 | AGDSPKAEKRQIGDQEGPRPARST [F1A] | 5.87
75 | WGDSPKAEKRQIGDQEGPRPARST [F1W] | 5.69
76 | RGDSPKAEKRQIGDQEGPRPARST [F1R] | 5.67
77 | EGDSPKAEKRQIGDQEGPRPARST [F1E] | 5.52
78 | MGDSPKAEKRQIGDQEGPRPARST [F1M] | 5.85
79 | LGDSPKAEKRQIGDQEGPRPARST [F1L] | 5.36
80 | SGDSPKAEKRQIGDQEGPRPARST [F1S] | 5.51
81 | NGDSPKAEKRQIGDQEGPRPARST [F1N] | 5.54
82 | YGDSPKAEKRQIGDQEGPRPARST [F1Y] | 5.42
83 | HGDSPKAEKRQIGDQEGPRPARST [F1H] | 5.52
84 | IGDSPKAEKRQIGDQEGPRPARST [F1I] | 5.41
85 | KGDSPKAEKRQIGDQEGPRPARST [F1K] | 5.79
86 | GGDSPKAEKRQIGDQEGPRPARST [F1G] | 5.72
87 | PGDSPKAEKRQIGDQEGPRPARST [F1P] | 5.58
88 | FHDSPKAEKRQIGDQEGPRPARST [G2H] | 4.58
89 | FMDSPKAEKRQIGDQEGPRPARST [G2M] | 4.96
90 | FDDSPKAEKRQIGDQEGPRPARST [G2D] | 4.94
91 | FNDSPKAEKRQIGDQEGPRPARST [G2N] | 4.16
92 | FADSPKAEKRQIGDQEGPRPARST [G2A] | 4.53
93 | FIDSPKAEKRQIGDQEGPRPARST [G2I] | 3.83
94 | FKDSPKAEKRQIGDQEGPRPARST [G2K] | 4.72
95 | FCDSPKAEKRQIGDQEGPRPARST [G2C] | 4.19
96 | FFDSPKAEKRQIGDQEGPRPARST [G2F] | 4.63
97 | FEDSPKAEKRQIGDQEGPRPARST [G2E] | 5.83
